# According to publication PMC7679444:
# Molecular target: GST-HA-ATG16L1(231–607) (UniProt Q676U5)
# Experiment: peptide microarray
# Conditions: 800, 600, 400 nM; n = 9; read off a plot
row,Substance,percent of parent
1,"TMEM59 peptide (residues 268–280), wild type (from UniProt Q9BXS4) K273del",15 % WT
2,"TMEM59 peptide (residues 268–280), wild type (from UniProt Q9BXS4) K273del; L274del; I276del",7 % WT
3,"TMEM59 peptide (residues 268–280), wild type (from UniProt Q9BXS4) K273del; S275del",160 % WT
4,"TMEM59 peptide (residues 268–280), wild type (from UniProt Q9BXS4) L274del; S275del; I276del",72 % WT
5,"TMEM59 peptide (residues 268–280), wild type (from UniProt Q9BXS4) P270del",160 % WT
6,"TMEM59 peptide (residues 268–280), wild type (from UniProt Q9BXS4) S271del",180 % WT
7,"TMEM59 peptide (residues 268–280), wild type (from UniProt Q9BXS4) S275del",100 % WT
8,"TMEM59 peptide (residues 268–280), wild type (from UniProt Q9BXS4) S275del; I276del",80 % WT
9,"TMEM59 peptide (residues 268–280), wild type (from UniProt Q9BXS4) V269del; P270del",130 % WT
10,"TMEM59 peptide (residues 268–280), wild type (from UniProt Q9BXS4) V269del; S271del",180 % WT

# Now from value to substance:
row,percent of parent,Substance
1,50 % WT,"TMEM59 peptide (residues 268–280), wild type (from UniProt Q9BXS4) I276del"
2,32 % WT,"TMEM59 peptide (residues 268–280), wild type (from UniProt Q9BXS4) K273del; I276del"
3,22 % WT,"TMEM59 peptide (residues 268–280), wild type (from UniProt Q9BXS4) K273del; L274del"
4,120 % WT,"TMEM59 peptide (residues 268–280), wild type (from UniProt Q9BXS4) K273del; L274del; S275del"
5,22 % WT,"TMEM59 peptide (residues 268–280), wild type (from UniProt Q9BXS4) L274del"
6,20 % WT,"TMEM59 peptide (residues 268–280), wild type (from UniProt Q9BXS4) L274del; I276del"
7,120 % WT,"TMEM59 peptide (residues 268–280), wild type (from UniProt Q9BXS4) L274del; S275del"
8,180 % WT,"TMEM59 peptide (residues 268–280), wild type (from UniProt Q9BXS4) P270del; S271del"
9,20 % WT,"TMEM59 peptide (residues 268–280), wild type (from UniProt Q9BXS4) V269del"
